Data as given in patent US11504441B2, “Radiolabeled compounds targeting the prostate-specific membrane antigen” (PROVINCIAL HEALTH SERVICES AUTHORITY, priority 2019, dated 2022).

Assays:
[1] = tested on: PSMA-expressing LNCaP cancer xenografts
Protocol: (§1) LNCaP cell line was obtained from ATCC (LNCaP clone FGC, CRL-1740). […] Cells were cultured in PRM I 1640 medium supplemented with 10% FBS, penicillin (100 U/mL) and streptomycin (100 μg/mL) at 37° C. in a humidified incubator containing 5% CO2. Cells grown to 80-90% confluence were then washed with sterile phosphate-buffered saline (1× PBS pH 7.4) and collected by trypsinization. The collected cells concentration was counted with a Hausser Scientific (Horsham, Pa.) Hemacytometer.
(§2) Imaging and biodistribution experiments were performed using NODSCID 1 L2RγKO male mice. Mice were anesthetized by inhalation with 2% isoflurane in oxygen, and implanted subcutaneously with 1×10^7 LNCaP cells behind left shoulder. Mice were imaged or used in biodistribution studies when the tumor grew up to reach 5-8 mm in diameter during 5-6 weeks.
(§3) PET imaging experiments were conducted using Siemens Inveon micro PET/CT scanner. Each tumor bearing mouse was injected 6-8 MBq of Ga-68 labeled tracer through the tail vein under anesthesia (2% isoflurane in oxygen). The mice were allowed to recover and roam freely in their cage. After 50 min, the mice were sedated again with 2% isoflurane in oxygen inhalation and positioned in the scanner. A 10-min CT scan was conducted first for localization and attenuation correction after segmentation for reconstructing the PET images. Then, a 10-min static PET imaging was performed to determined uptake in tumor and other organs. The mice were kept warm by a heating pad during acquisition. For biodistribution studies, the mice were injected with the radiotracer as described above. The mice was anesthetized with 2% isoflurane inhalation, and euthanized by CO2 inhalation. Blood was withdrawn immediately from the heart, and the organs/tissues of interest were collected. The collected organs/tissues were weighed and counted using a Perkin Elmer (Waltham, Mass.) Wizard2 2480 gamma counter. The uptake in each organ/tissue was normalized to the injected dose using a standard curve, and expressed as the percentage of the injected dose per gram of tissue (% ID/g).
(§4) LNCaP cell line was obtained from ATCC (LNCaP clone FGC, CRL-1740). […] Cells were cultured in PRM I 1640 medium supplemented with 10% FBS, penicillin (100 U/mL) and streptomycin (100 μg/mL) at 37° C. in a humidified incubator containing 5% CO2. Cells grown to 80-90% confluence were then washed with sterile phosphate-buffered saline (1× PBS pH 7.4), and collected by trypsinization. The collected cell concentration was counted with a Hausser Scientific (Horsham, Pa.) Hemacytometer.
(§5) Imaging and biodistribution experiments were performed using NODSCID 1L2RγKO male mice. Mice were anesthetized by inhalation with 2% isoflurane in oxygen, and implanted subcutaneously with 1×10^7 LNCaP cells behind left shoulder. Mice were imaged or used in biodistribution studies when the tumor grew up to reach 5-8 mm in diameter during 5-6 weeks.
(§6) PET imaging experiments were conducted using Siemens Inveon micro PET/CT scanner. Each tumor bearing mouse was injected 6-8 MBq of Ga-68 or F-18 labeled tracer through the tail vein under anesthesia (2% isoflurane in oxygen). The mice were allowed to recover and roam freely in their cage. After 50 min, the mice were sedated again with 2% isoflurane in oxygen inhalation and positioned in the scanner. A 10-min CT scan was conducted first for localization and attenuation correction after segmentation for reconstructing the PET images. Then, a 10-min static PET imaging was performed to determined uptake in tumor and other organs.
(§7) For biodistribution studies, the mice were injected with the radiotracer as described above.

[2] = tested on: PSMA-expressing LNCaP cancer xenografts; set-up: species or system mice; details: mouse, in vivo, iv
Protocol: as §2
PET imaging experiments were conducted using Siemens Inveon micro PET/CT scanner. Each tumor bearing mouse was injected 6-8 MBq of Ga-68 labeled tracer through the tail vein under anesthesia (2% isoflurane in oxygen). The mice were allowed to recover and roam freely in their cage. After 50 min, the mice were sedated again with 2% isoflurane in oxygen inhalation and positioned in the scanner. […] Then, a 10-min static PET imaging was performed to determined uptake in tumor and other organs. […] The collected organs/tissues were weighed and counted using a Perkin Elmer (Waltham, Mass.) Wizard2 2480 gamma counter. The uptake in each organ/tissue was normalized to the injected dose using a standard curve, and expressed as the percentage of the injected dose per gram of tissue (% ID/g). […]
PET imaging experiments were conducted using Siemens Inveon micro PET/CT scanner. […] Then, a 10-min static PET imaging was performed to determined uptake in tumor and other organs.

in vivo = details: male, NODSCID 1L2RγKO, mouse, iv, total radioactivity
Protocol: as §1, §2, §3, §4, §5, §6, §7

[3] = male, NODSCID 1L2RγKO, mouse, in vivo, iv, 1 h

SMILES: O=C(O)CCC[C@H](NC(=O)N[C@@H](CCCCNC(=O)[C@H](Cc1c2ccccc2cc2ccccc12)NC(=O)[C@H]1CC[C@H](CNC(=O)CN2CCN(CC(=O)O)CCN(CC(=O)O)CCN(CC(=O)O)CC2)CC1)C(=O)O)C(=O)O [68Ga-HTK03149, metal not drawn]
- Adrenal glands uptake [1, 3]: 0.33 ± 0.11 % ID/g
- Blood uptake [1, 3]: 0.70 ± 0.17 % ID/g
- Kidneys uptake [1, 3]: 4.15 ± 1.46 % ID/g
- Liver uptake [1, 3]: 0.25 ± 0.06 % ID/g
- Lungs uptake [1, 3]: 0.53 ± 0.09 % ID/g
- Seminal uptake [1, 3]: 3.66 ± 5.36 % ID/g
- Spleen uptake [1, 3]: 0.27 ± 0.05 % ID/g
- Stomach uptake [1, 3]: 0.07 ± 0.01 % ID/g
- Tail uptake [1, 3]: 0.58 ± 0.14 % ID/g
- Thyroid uptake [1, 3]: 0.20 ± 0.05 % ID/g
- Tumor uptake [1, 3]: 19.1 ± 6.37 % ID/g
- Urine uptake [1, 3]: 319 ± 183 % ID/g
- Blood: Salivary ratio ([1]; mouse, in vivo): 3.21 ± 0.64
- activity in other organs in PET images [2]: very low activity in other organs
- tissue uptake at 1 h (in vivo; Adrenal glands uptake): 0.46 ± 0.26 %ID/g
- tissue uptake at 3 h (in vivo; Adrenal glands uptake): 0.46 ± 0.16 %ID/g
- tissue uptake at 1 h (in vivo; Blood uptake): 0.96 ± 0.17 %ID/g
- tissue uptake at 3 h (in vivo; Blood uptake): 0.35 ± 0.14 %ID/g
- tissue uptake at 1 h (in vivo; Bone uptake): 0.1 ± 0.03 %ID/g
- tissue uptake at 1 h (in vivo; Brain uptake): 0.02 ± 0.01 %ID/g
- tissue uptake at 3 h (in vivo; Brain uptake): 0.02 ± 0.01 %ID/g
- tissue uptake at 1 h (in vivo; Fat uptake): 0.22 ± 0.16 %ID/g
- tissue uptake at 3 h (in vivo; Fat uptake): 0.16 ± 0.09 %ID/g
- tissue uptake at 1 h (in vivo; Heart uptake): 0.29 ± 0.07 %ID/g
- tissue uptake at 3 h (in vivo; Heart uptake): 0.09 ± 0.02 %ID/g
- tissue uptake at 1 h (in vivo; Intestine uptake): 0.3 ± 0.07 %ID/g
- tissue uptake at 3 h (in vivo; Intestine uptake): 0.18 ± 0.04 %ID/g
- tissue uptake at 1 h (in vivo; Kidneys uptake): 6.79 ± 4.91 %ID/g
- tissue uptake at 3 h (in vivo; Kidneys uptake): 2.33 ± 1.02 %ID/g
- tissue uptake at 1 h (in vivo; Lacrimal uptake): 0.1 ± 0.03 %ID/g
- tissue uptake at 3 h (in vivo; Lacrimal uptake): 0.21 ± 0.2 %ID/g
- tissue uptake at 1 h (in vivo; Liver uptake): 0.35 ± 0.17 %ID/g
- tissue uptake at 3 h (in vivo; Liver uptake): 0.13 ± 0.02 %ID/g
- tissue uptake at 1 h (in vivo; Lungs uptake): 0.82 ± 0.37 %ID/g
- tissue uptake at 3 h (in vivo; Lungs uptake): 0.22 ± 0.05 %ID/g
- tissue uptake at 1 h (in vivo; Muscle uptake): 0.14 ± 0.04 %ID/g
- tissue uptake at 3 h (in vivo; Muscle uptake): 0.05 ± 0.02 %ID/g
- tissue uptake at 1 h (in vivo; Pancreas uptake): 0.17 ± 0.03 %ID/g
- tissue uptake at 3 h (in vivo; Pancreas uptake): 0.06 ± 0.02 %ID/g
- tissue uptake at 1 h (in vivo; Salivary uptake): 0.23 ± 0.05 %ID/g
- tissue uptake at 3 h (in vivo; Salivary uptake): 0.15 ± 0.13 %ID/g
- tissue uptake at 1 h (in vivo; Seminal uptake): 6.46 ± 7.52 %ID/g
- tissue uptake at 3 h (in vivo; Seminal uptake): 1.19 ± 1.04 %ID/g
- tissue uptake at 1 h (in vivo; Spleen uptake): 0.37 ± 0.12 %ID/g
- tissue uptake at 3 h (in vivo; Spleen uptake): 0.24 ± 0.07 %ID/g
- tissue uptake at 1 h (in vivo; Stomach uptake): 0.09 ± 0.04 %ID/g
- tissue uptake at 3 h (in vivo; Stomach uptake): 0.03 ± 0.01 %ID/g
- tissue uptake at 1 h (in vivo; Tail uptake): 0.86 ± 0.47 %ID/g
- tissue uptake at 3 h (in vivo; Tail uptake): 0.13 ± 0.06 %ID/g
- tissue uptake at 1 h (in vivo; Testes uptake): 0.38 ± 0.16 %ID/g
- tissue uptake at 3 h (in vivo; Testes uptake): 0.11 ± 0.03 %ID/g
- tissue uptake at 1 h (in vivo; Thyroid uptake): 0.29 ± 0.08 %ID/g
- tissue uptake at 3 h (in vivo; Thyroid uptake): 0.1 ± 0.04 %ID/g
- tissue uptake at 1 h (in vivo; Tumor uptake): 22.1 ± 13.9 %ID/g
- tissue uptake at 3 h (in vivo; Tumor uptake): 33.5 ± 10.7 %ID/g
- excreta dose per gram or mL at 1 h (in vivo; Urine uptake): 336 ± 127 %ID/g
- excreta dose per gram or mL at 3 h (in vivo; Urine uptake): 148 ± 102 %ID/g

SMILES: O=C(O)CCC[C@H](NC(=O)N[C@@H](CCCCNC(=O)[C@H](Cc1c2ccccc2cc2ccccc12)NC(=O)c1ccc(NC(=O)CN2CCN(CC(=O)O)CCN(CC(=O)O)CCN(CC(=O)O)CC2)cc1)C(=O)O)C(=O)O [68Ga-HTK04041, metal not drawn]
- Blood: Salivary ratio ([1]; mouse, in vivo): 3.96 ± 0.51
- Tumor: Blood ratio ([1]; mouse, in vivo): 12.4 ± 3.62
- Tumor: Kidney ratio ([1]; mouse, in vivo): 2.06 ± 0.89
- Tumor: Muscle ratio ([1]; mouse, in vivo): 95.1 ± 33.7
- Tumor: Salivary ratio ([1]; mouse, in vivo): 48.2 ± 12.2
- tissue uptake at 1 h (in vivo; Adrenal glands uptake): 0.31 ± 0.05 %ID/g
- tissue uptake at 1 h (in vivo; Blood uptake): 1 ± 0.09 %ID/g
- tissue uptake at 1 h (in vivo; Bone uptake): 0.13 ± 0.02 %ID/g
- tissue uptake at 1 h (in vivo; Brain uptake): 0.02 %ID/g
- tissue uptake at 1 h (in vivo; Fat uptake): 0.11 ± 0.03 %ID/g
- tissue uptake at 1 h (in vivo; Heart uptake): 0.3 ± 0.03 %ID/g
- tissue uptake at 1 h (in vivo; Intestine uptake): 0.19 ± 0.04 %ID/g
- tissue uptake at 1 h (in vivo; Kidneys uptake): 6.82 ± 2.93 %ID/g
- tissue uptake at 1 h (in vivo; Lacrimal uptake): 0.11 ± 0.05 %ID/g
- tissue uptake at 1 h (in vivo; Liver uptake): 0.37 ± 0.08 %ID/g
- tissue uptake at 1 h (in vivo; Lungs uptake): 0.82 ± 0.08 %ID/g
- tissue uptake at 1 h (in vivo; Muscle uptake): 0.13 ± 0.03 %ID/g
- tissue uptake at 1 h (in vivo; Pancreas uptake): 0.15 ± 0.02 %ID/g
- tissue uptake at 1 h (in vivo; Salivary uptake): 0.26 ± 0.04 %ID/g
- tissue uptake at 1 h (in vivo; Seminal uptake): 1.68 ± 3.44 %ID/g
- tissue uptake at 1 h (in vivo; Spleen uptake): 0.4 ± 0.11 %ID/g
- tissue uptake at 1 h (in vivo; Stomach uptake): 0.07 ± 0.03 %ID/g
- tissue uptake at 1 h (in vivo; Tail uptake): 0.57 ± 0.05 %ID/g
- tissue uptake at 1 h (in vivo; Testes uptake): 0.31 ± 0.05 %ID/g
- tissue uptake at 1 h (in vivo; Thyroid uptake): 0.29 ± 0.04 %ID/g
- tissue uptake at 1 h (in vivo; Tumor uptake): 12.2 ± 3.15 %ID/g
- excreta dose per gram or mL at 1 h (in vivo; Urine uptake): 396 ± 92.3 %ID/g

SMILES: O=C(O)CCC[C@H](NC(=O)N[C@@H](CCCCNC(=O)[C@H](Cc1cccc(I)c1)NC(=O)[C@H]1CC[C@H](CNC(=O)CN2CCN(CC(=O)O)CCN(CC(=O)O)CCN(CC(=O)O)CC2)CC1)C(=O)O)C(=O)O [68Ga-HTK04053, metal not drawn]
- Blood: Salivary ratio ([1]; mouse, in vivo): 5.19 ± 1.73
- Tumor: Blood ratio ([1]; mouse, in vivo): 16.8 ± 7.00
- Tumor: Kidney ratio ([1]; mouse, in vivo): 1.84 ± 1.26
- Tumor: Muscle ratio ([1]; mouse, in vivo): 93.7 ± 27.0
- Tumor: Salivary ratio ([1]; mouse, in vivo): 84.3 ± 32.1
- tissue uptake at 1 h (in vivo; Adrenal glands uptake): 0.12 ± 0.03 %ID/g
- tissue uptake at 1 h (in vivo; Blood uptake): 0.29 ± 0.05 %ID/g
- tissue uptake at 1 h (in vivo; Bone uptake): 0.04 ± 0.01 %ID/g
- tissue uptake at 1 h (in vivo; Brain uptake): 0.01 %ID/g
- tissue uptake at 1 h (in vivo; Fat uptake): 0.04 ± 0.01 %ID/g
- tissue uptake at 1 h (in vivo; Heart uptake): 0.09 ± 0.02 %ID/g
- tissue uptake at 1 h (in vivo; Intestine uptake): 0.15 ± 0.03 %ID/g
- tissue uptake at 1 h (in vivo; Kidneys uptake): 3.48 ± 2.39 %ID/g
- tissue uptake at 1 h (in vivo; Lacrimal uptake): 0.05 ± 0.01 %ID/g
- tissue uptake at 1 h (in vivo; Liver uptake): 0.13 ± 0.07 %ID/g
- tissue uptake at 1 h (in vivo; Lungs uptake): 0.28 ± 0.04 %ID/g
- tissue uptake at 1 h (in vivo; Muscle uptake): 0.05 ± 0.01 %ID/g
- tissue uptake at 1 h (in vivo; Pancreas uptake): 0.06 ± 0.02 %ID/g
- tissue uptake at 1 h (in vivo; Salivary uptake): 0.06 ± 0.02 %ID/g
- tissue uptake at 1 h (in vivo; Seminal uptake): 7.61 ± 12.5 %ID/g
- tissue uptake at 1 h (in vivo; Spleen uptake): 0.12 ± 0.03 %ID/g
- tissue uptake at 1 h (in vivo; Stomach uptake): 0.06 ± 0.04 %ID/g
- tissue uptake at 1 h (in vivo; Tail uptake): 0.2 ± 0.07 %ID/g
- tissue uptake at 1 h (in vivo; Testes uptake): 0.11 ± 0.02 %ID/g
- tissue uptake at 1 h (in vivo; Thyroid uptake): 0.09 ± 0.01 %ID/g
- tissue uptake at 1 h (in vivo; Tumor uptake): 4.96 ± 2.75 %ID/g
- excreta dose per gram or mL at 1 h (in vivo; Urine uptake): 523 ± 330 %ID/g

SMILES: O=C(O)CN1CCN(CC(=O)O)CCN(CC(=O)NC[C@H]2CC[C@H](C(=O)N[C@@H](Cc3c4ccccc4cc4ccccc34)C(=O)NCCCC[C@H](NC(=O)N[C@@H](C[C@H](F)C(=O)O)C(=O)O)C(=O)O)CC2)CCN(CC(=O)O)CC1 [HTK04040]
- binding to PSMA (in words) ([1]; concluded from biodistribution): bind well to PSMA
- kidney and salivary gland uptake (in words) ([1]; mouse, in vivo): much less kidney and salivary gland uptake
- tissue uptake at 1 h (in vivo; kidney uptake): 76 %ID/g
